Measurements from patent publication US8936806B2, “Periostin induces proliferation of cardiomyocytes and promotes cardiac regeneration” (Children's Medical Center Corporation, priority 2007, dated 2015).
“Also recorded” adds a separate entry of the source.

Legend:
[1] = tested on: primary neonatal rat ventricular cardiomyocytes; assay: Cardiomyocyte apoptosis (TUNEL) and survival
Method: To determine cardiomyocyte proliferation, primary neonatal rat ventricular cardiomyocytes were quantified by counting with a hemocytometer after 3 days and 6 days of stimulation. To determine cardiomyocyte survival, primary neonatal rat ventricular cardiomyocytes were pre-treated with 500 ng/mL periostin or buffer for 30 min and then exposed to 0.5 μM doxycycline or 100 ng/mL TNFα for 24 hr and quantified by counting. Corresponding samples were stained with an antibody directed against tropomyosin as a cardiomyocyte marker to control for the percentage of differentiated cardiomyocytes. Apoptotic cardiomyocyte nuclei were determined after 24 hr with the In situ Cell Death Detection Kit (Roche, Indianapolis, Ind.) in combination with staining for troponin I.

[2] = tested on: primary adult rat ventricular cardiomyocytes; assay: DNA synthesis (BrdU uptake, immunofluorescence) in primary adult rat ventricular cardiomyocytes; type: cell-based
Source text: Primary neonatal rat ventricular cardiomyocytes were isolated using the Neomyts kit (Cellutron, Highland Park, N.J.), seeded at a density of 10^5 cells/cm^2 onto gelatin-coated cover slips, stimulated for 3 days, and labeled with BrdU for the terminal 2 days. Primary adult ventricular cardiomyocytes were isolated from male (300 gm) Wistar rats (Charles River Laboratories) and maintained as described (Engel, F. B. et al. p38 MAP kinase inhibition enables proliferation of adult mammalian cardiomyocytes. Genes Dev 19, 1175-87 (2005)). Adult cardiomyocytes were stimulated daily for 9 days and labeled with 30 μM BrdU for the terminal 3 days. Cardiomyocytes were stimulated with periostin (500 ng/mL) and FGF (100 ng/mL). […] The vehicle used to dissolve factors or chemicals was added to unstimulated samples, which were then processed together with the test samples. DNA-synthesis was analyzed by visualization of BrdU uptake and cytokinesis was determined by detection of the cleavage furrow and the midbody with an antibody against aurora B kinase as described (Engel, F. B. et al. p38 MAP kinase inhibition enables proliferation of adult mammalian cardiomyocytes. Genes Dev 19, 1175-87 (2005)). Signals were visualized with secondary antibodies conjugated to Alexa 488, Alexa 546, Alexa 594, and Alexa 647 (Invitrogen). […] For image acquisition, the value for γ was set at 1 and the lookup table settings were linear. Primary adult rat ventricular cardiomyocytes were grown on gridded cover slips (Electron Microscopy Services, Ft. Washington, Pa.) and imaged in phase contrast at 10× magnification. Cardiomyocytes were transduced with an adenovirus leading to nuclear expression of histone2B-GFP (Shi, Q. & King, R. W. Nature 437, 1038-42 (2005)) under control of the chicken troponin T promoter ([…]. Am J Physiol Cell Physiol 286, […]-64 (2004)). Nuclei were visualized at 10× magnification with a mercury-arc lamp dimmed to 1.5% with a neutral density filter. […] Images of BrdU-positive cardiomyocytes were matched with the corresponding images from before stimulation. For quantification, differentiated cardiomyocytes were defined as striated rod-shaped structures with length/width ratio>1.5.

[3] = tested on: ERK1/2 and Akt; conditions: neonatal cardiomyocytes
Method: Primary cardiomyocytes or heart tissue were lysed in 20 mM Tris (pH 7.5), 150 mM NaCl, 10 mM EDTA, 1 mM EGTA, 1% Triton X-100, […], 1 mM β-glycerol phosphate, 1 mM Na3VO4, 1 μg/ml, leupeptin, 1% NP-40 and 0.24 mg/mL Pefabloc SC (Roche) at 4° C. Protein concentrations were determined using the BCA assay (Pierce, Rockford, Ill.). Forty μg of cell lysate was separated on 10% SDS-polyacrylamide gels, blotted onto nitrocellulose membranes (Amersham, Piscataway, N. J.), which were then incubated with antibodies according to manufacturer's directions, followed by visualization with ECL reagent (Amersham).

[4] = tested on: differentiated cardiomyocytes; assay: Hypertrophy by [3H]leucine uptake; type: cell-based, rat; conditions: phenylephrine 10 mM [sic]; all time points tested
Source text: Induction of the fetal gene program is accompanied by increased protein synthesis leading to cardiomyocyte hypertrophy. We assessed cardiomyocyte hypertrophy by measuring uptake of [^3H]leucine.

[5] = tested on: primary neonatal rat ventricular cardiomyocytes; assay: DNA synthesis, mitosis and cytokinesis in primary neonatal rat ventricular cardiomyocytes; type: cell-based
Source text: Primary neonatal rat ventricular cardiomyocytes were isolated using the Neomyts kit (Cellutron, Highland Park, N.J.), seeded at a density of 10^5 cells/cm^2 onto gelatin-coated cover slips, stimulated for 3 days, and labeled with BrdU for the terminal 2 days. Primary adult ventricular cardiomyocytes were isolated from male (300 gm) Wistar rats (Charles River Laboratories) and maintained as described (Engel, F. B. et al. p38 MAP kinase inhibition enables proliferation of adult mammalian cardiomyocytes. Genes Dev 19, 1175-87 (2005)). Adult cardiomyocytes were stimulated daily for 9 days and labeled with 30 μM BrdU for the terminal 3 days. Cardiomyocytes were stimulated with periostin (500 ng/mL) and FGF (100 ng/mL). Inhibiting antibodies were added at a concentration of 10 μg/mL, cRGD at 10 μM, U0126 at 10 μM, PD98059 at 1 μM, LY294002 at 10 μM, and Wortmannin at 0.1 μM 30 min prior to stimulation. The vehicle used to dissolve factors or chemicals was added to unstimulated samples, which were then processed together with the test samples.
DNA-synthesis was analyzed by visualization of BrdU uptake and cytokinesis was determined by detection of the cleavage furrow and the midbody with an antibody against aurora B kinase as described (Engel, F. B. et al. p38 MAP kinase inhibition enables proliferation of adult mammalian cardiomyocytes. Genes Dev 19, 1175-87 (2005)). Signals were visualized with secondary antibodies conjugated to Alexa 488, Alexa 546, Alexa 594, and Alexa 647 (Invitrogen). Nuclei were visualized with 4′,6′-diamidino-2-phenylindole (DAPI, Invitrogen). For image acquisition, the value for γ was set at 1 and the lookup table settings were linear.

[6] = H2B-GFP, after 6 days, 3 days BrdU labeling, stimulus not named in block (periostin section)

B1: periostin: Recombinant periostin, purified from HEK293 cells expressing the full-length human cDNA; secreted protein of 834 amino acids (Seq ID. No. 1) (protein, listed as Homo sapiens)
chain: MIPFLPMFSLLLLLIVNPINANNHYDKILAHSRIRGRDQGPNVCALQQILGTKKKYFSTCKNWYKKSICGQKTTVLYECCPGYMRMEGMKGCPAVLPIDHVYGTLGIVGATTTQRYSDASKLREEIEGKGSFTYFAPSNEAWDNLDSDIRRGLESNVNVELLNALHSHMINKRMLTKDLKNGMIIPSMYNNLGLFINHYPNGVVTVNCARIIHGNQIATNGVVHVIDRVLTQIGTSIQDFIEAEDDLSSFRAAAITSDILEALGRDGHFTLFAPTNEAFEKLPRGVLERFMGDKVASEALMKYHILNTLQCSESIMGGAVFETLEGNTIEIGCDGDSITVNGIKMVNKKDIVTNNGVIHLIDQVLIPDSAKQVIELAGKQQTTFTDLVAQLGLASALRPDGEYTLLAPVNNAFSDDTLSMVQRLLKLILQNHILKVKVGLNELYNGQILETIGGKQLRVFVYRTAVCIENSCMEKGSKQGRNGAIHIFREIIKPAEKSLHEKLKQDKRFSTFLSLLEAADLKELLTQPGDWTLFVPTNDAFKGMTSEEKEILIRDKNALQNIILYHLTPGVFIGKGFEPGVTNILKTTQGSKIFLKEVNDTLLVNELKSKESDIMTTNGVIHVVDKLLYPADTPVGNDQLLEILNKLIKYIQIKFVRGSTFKEIPVTVYTTKIITKVVEPKIKVIEGSLQPIIKTEGPTLTKVKIEGEPEFRLIKEGETITEVIHGEPIIKKYTKIIDGVPVEITEKETREERIITGPEIKYTRISTGGGETEETLKKLLQEEVTKVTKFIEGGDGHLFEDEEIKRLLQGDTPVRKLQANKKVQGSRRRLREGRSQ
cardiomyocyte survival ([1]; 500 ng/mL pre-treatment, then doxorubicin or TNF-α 24 hr): not affected
doxorubicin or TNF-α-induced cardiomyocyte death ([1]; FIG. 2L): did not reduce
baseline and induced cardiomyocyte apoptosis ([1]; TUNEL, 24 hr): not affected
increase of cardiomyocyte DNA synthesis ([2]; 9 days periostin 500 ng/mL, vs non-stimulated): 14 fold
cardiomyocyte DNA synthesis ([2]; 9 days stimulation (periostin 500 ng/mL, FGF 100 ng/mL), BrdU terminal 3 days): 1.1±0.2%
BrdU-positive binucleated cardiomyocytes [2, 6]: 0.2±0.03%
BrdU-positive mononucleated cardiomyocytes [2, 6]: 1.7±0.3%
start of periostin-induced cardiomyocyte DNA synthesis ([2]; time-course of stimulation): 3 days
activation of ERK1/2 and Akt [3]: activated
[3H]leucine uptake (hypertrophy) [4]: did not induce uptake; also recorded: did not induce hypertrophy
DNA synthesis, of cardiomyocytes ([5]; 500 ng/mL, 3 days): 35±5%
increase of DNA synthesis over non-stimulated cardiomyocytes ([5]; 500 ng/mL, 3 days): 5 fold
increase of cardiomyocyte mitoses ([5]; 3 days): 12 fold
increase of cytokineses ([5]; 3 days): 8 fold
induction of cardiomyocyte DNA synthesis ([5]; FIG. 2d, 2e): stimulated DNA synthesis as effectively as FGF
EC50 ([5]; increasing concentrations of periostin (FIG. 2a), read-out: half-maximal stimulation of cardiomyocyte DNA synthesis): 155 ± 25 nM
